The text below walks through data of patent US20130089536.

The target in this data set is Aβ1-40 peptide (UniProt P05067).

Turning to “hGCP II (wild type human glutamate carboxypeptidase II expressed from cDNA in cells)”, the “Aβ1-40 cleavage in primary rat astrocytes (Aβ1-40 in growth medium by ELISA)” value is reported as 2-PMPA did not block A1-40 cleavage of lentiviral GCP II.
